For this assay, the target named is recombinant mouse PrP, amino acids 23–231 (rmPrP_(23-231)) (mouse). Put plainly: ELISA.

Experimental findings from paper PMC2592702 are described below.

In general, stoichiometry N refers to the number of molecules, sites or subunits per partner or assembly. As to POM2 monoclonal antibody (IgG), the stoichiometry N is > 2.
